{
  "source": "paper PMC8104107",
  "binders": {"B1": {"name": "influenza A/WSN/33 virus nucleoprotein (NP), recombinant, P15682 1-498 (natural protein)", "chain": "MATKGTKRSYEQMETDGERQNATEIRASVGKMIGGIGRFYIQMCTELKLSDYEGRLIQNSLTIERMVLSAFDERRNKYLEEHPSAGKDPKKTGGPIYRRVDGKWMRELILYDKEEIRRIWRQANNGDDATAGLTHMMIWHSNLNDATYQRTRALVRTGMDPRMCSLMQGSTLPRRSGAAGAAVKGVGTMVMELIRMIKRGINDRNFWRGENGRRTRIAYERMCNILKGKFQTAAQRAMVDQVRESRNPGNAEFEDLIFLARSALILRGSVAHKSCLPACVYGPAVASGYDFEREGYSLVGIDPFRLLQNSQVYSLIRPNENPAHKSQLVWMACHSAAFEDLRVSSFIRGTKVVPRGKLSTRGVQIASNENMETMESSTLELRSRYWAIRTRSGGNTNQQRASSGQISIQPTFSVQRNLPFDRPTIMAAFTGNTEGRTSDMRTEIIRLMESARPEDVSFQGRGVFELSDEKAASPIVPSFDMSNEGSYFFGDNAEEYDN"}},
  "target": "T1, influenza A/WSN/33 virus nucleoprotein (NP), recombinant (influenza A virus A/WSN/33 (H1N1)), P15682",
  "T1 chain": "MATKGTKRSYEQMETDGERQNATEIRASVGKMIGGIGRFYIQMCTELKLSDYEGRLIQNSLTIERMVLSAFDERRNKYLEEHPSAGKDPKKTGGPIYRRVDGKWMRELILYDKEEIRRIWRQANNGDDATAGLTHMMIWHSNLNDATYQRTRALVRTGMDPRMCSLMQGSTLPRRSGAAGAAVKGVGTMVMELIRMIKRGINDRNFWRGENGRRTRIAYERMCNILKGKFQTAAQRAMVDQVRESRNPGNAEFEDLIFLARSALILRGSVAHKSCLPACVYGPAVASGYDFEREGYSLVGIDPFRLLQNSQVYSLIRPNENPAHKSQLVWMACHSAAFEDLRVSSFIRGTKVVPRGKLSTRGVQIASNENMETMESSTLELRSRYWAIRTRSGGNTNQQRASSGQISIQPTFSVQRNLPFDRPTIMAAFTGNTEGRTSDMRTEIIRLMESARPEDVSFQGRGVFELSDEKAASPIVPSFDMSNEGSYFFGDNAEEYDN",
  "experiment": "crystal structure; NP mixed with FA-6005 (final 0.5 mM) before crystallization; 0.1 M sodium acetate, 0.05 M magnesium acetate, 0.1 M MES pH 6.0, 7% PEG 8000, 5% glycerol; space group C222(1), one trimer in each asymmetric unit",
  "details": "remark: other sources report otherwise",
  "data": [
    {"binder": "B1", "values": [
      {"measurement": "stoichiometry N", "result": 3}
    ]}
  ]
}
